The values that follow come from IntAct's records for PubMed 27107116.

B1: Protein REG2 (Saccharomyces cerevisiae), P38232 (parent)
chain: MTLSNCDSLDNLFQDPPEEEESSKFVEAVRTLMNRNDMGYPPAAANGTYCLKKIKSLNAKQWKINKKRMCMLPAVKKKNFDFHEQRSLILNLNLWKFIKFINCSSKNNYNKNNKHVRSSNNTVKNENVLPLQKHKKVDNDQRLENLFWRSWFKARKRRDIMGKPRERHIKFNDNVEQCIITDEHFIQRLPSTRLNSTDEQRPCSKSELDPCIGNAASKRSFYDYNSVYVASDAIITTAAATAIISSNSGDYQRGHDVRDVPRNVLLQAGETDFSSVLRVDSDLKLSNISHHSPVKPSSTSSHSTFIFESETDTDTDTDAETENDIDAYIDTSIPNLLL
partner: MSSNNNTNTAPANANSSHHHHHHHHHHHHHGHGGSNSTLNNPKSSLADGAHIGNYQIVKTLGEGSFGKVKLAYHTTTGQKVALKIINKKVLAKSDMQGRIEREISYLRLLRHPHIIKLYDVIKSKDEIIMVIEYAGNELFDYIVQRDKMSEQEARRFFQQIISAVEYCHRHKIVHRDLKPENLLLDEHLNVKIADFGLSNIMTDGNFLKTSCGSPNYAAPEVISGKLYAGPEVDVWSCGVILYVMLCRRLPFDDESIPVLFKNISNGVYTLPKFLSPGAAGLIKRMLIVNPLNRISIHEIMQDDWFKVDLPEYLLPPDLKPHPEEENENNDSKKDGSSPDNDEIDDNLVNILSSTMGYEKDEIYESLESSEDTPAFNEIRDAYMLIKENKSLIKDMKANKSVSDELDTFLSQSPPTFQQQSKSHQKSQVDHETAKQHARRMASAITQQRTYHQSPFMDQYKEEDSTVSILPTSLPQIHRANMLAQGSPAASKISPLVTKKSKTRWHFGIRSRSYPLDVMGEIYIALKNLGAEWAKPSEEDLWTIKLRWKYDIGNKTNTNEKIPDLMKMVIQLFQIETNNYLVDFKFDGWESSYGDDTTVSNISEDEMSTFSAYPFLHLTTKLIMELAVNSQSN
B2: Carbon catabolite-derepressing protein kinase (Saccharomyces cerevisiae), P06782 (parent)
chain: B1 partner
partner: B1 chain
B3: Protein REG2 (Saccharomyces cerevisiae), P38232 (parent)
chain: B1 chain

Variants of B1 are the subject of the first test. Particulars: with snf1_yeast SNF1, P06782.
Consider MTLSNCDSLDNLFQDPPEEEESSKFVEAVRTLMNRNDMGYPPAAANGTYCLKKIKSLNAKQWKINKKRMCMLPAVKKKNFDFHEQRSLILNLNLWKFIKFINCSSKNNYNKNNKHVRSSNNTVKNENVLPLQKHKKVDNDQRLENLFWRSWFKARKRRDIMGKPRERHMKANDNVEQCIITDEHFIQRLPSTRLNSTDEQRPCSKSELDPCIGNAASKRSFYDYNSVYVASDAIITTAAATAIISSNSGDYQRGHDVRDVPRNVLLQAGETDFSSVLRVDSDLKLSNISHHSPVKPSSTSSHSTFIFESETDTDTDTDAETENDIDAYIDTSIPNLLL [I169M;F171A], for which the “effect of a mutation on the interaction” value was “with no effect”.

The variants in the next test derive from B2. Particulars: with reg2_yeast REG2, P38232.
In the case of T210A, the “effect of a mutation on the interaction” value is “disrupting interaction strength”.
Turning to K84R, the “effect of a mutation on the interaction” value is recorded as “decreasing interaction strength”.

A further test covers variants of B3. The note with it: with pp12_yeast GLC7, P32598.
pp12_yeast GLC7, P32598, sequence (P32598 whole entry): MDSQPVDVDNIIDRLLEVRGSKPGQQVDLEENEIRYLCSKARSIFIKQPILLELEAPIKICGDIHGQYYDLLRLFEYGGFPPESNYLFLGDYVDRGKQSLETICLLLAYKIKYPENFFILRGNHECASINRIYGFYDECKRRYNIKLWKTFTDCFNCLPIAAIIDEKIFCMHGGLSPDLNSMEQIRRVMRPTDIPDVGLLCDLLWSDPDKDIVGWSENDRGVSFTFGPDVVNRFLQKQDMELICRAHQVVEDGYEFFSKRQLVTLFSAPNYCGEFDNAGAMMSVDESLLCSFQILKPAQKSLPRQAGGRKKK
Regarding MTLSNCDSLDNLFQDPPEEEESSKFVEAVRTLMNRNDMGYPPAAANGTYCLKKIKSLNAKQWKINKKRMCMLPAVKKKNFDFHEQRSLILNLNLWKFIKFINCSSKNNYNKNNKHVRSSNNTVKNENVLPLQKHKKVDNDQRLENLFWRSWFKARKRRDIMGKPRERHMKANDNVEQCIITDEHFIQRLPSTRLNSTDEQRPCSKSELDPCIGNAASKRSFYDYNSVYVASDAIITTAAATAIISSNSGDYQRGHDVRDVPRNVLLQAGETDFSSVLRVDSDLKLSNISHHSPVKPSSTSSHSTFIFESETDTDTDTDAETENDIDAYIDTSIPNLLL [I169M;F171A], the “effect of a mutation on the interaction” value is recorded as “disrupting interaction strength”.
